Measurements as given in US20190367633A1 (published 2019).
Values joined by “and” are separate entries in the source; they are usually repeats but may differ in a detail not shown here. Equal entries are not always repeated. Blank lines part the entries; values can stand above or below the binder they belong to.

Experiments:
[1] = biological target: T1, Recombinant human PD-1-Fc (human, UniProt Q15116 25-167); test: competition
[2] = biological target: human HER2 (Beijing Yiyi) (human, UniProt P04626 23-652); test: ELISA
[3] = biological target: T1, Recombinant human PD-1-Fc; test: competition ELISA; blocking PD-1/PD-L2
[4] = biological target: Recombinant human PD-1 (Beijing Yiqiao Shenzhou, Cat. No. 10377-H08H) (human, UniProt Q15116 25-167); test: ELISA
[5] = biological target: T1, Recombinant human PD-1-Fc; test: competition ELISA; blocking PD-1/PD-L1

IC50 [3]: > 1.11 nM | EC50 [4]: > 0.08 nM | EC50 [2]: > 20 nM | IC50 [5]: > 1.2 nM
B3: PD-1 MONOCLONAL ANTIBODYBJHM (antibody, V domains shown)
VH: EVQLQESGGGLVKPGGSLKLSCAASGFTFSSYGMSWVRQTPEKRLEWVASISGGGRYTYYPDSMKGRFTISRDNAKNNLHLQMSSLRSEDTALYYCVYEYFYTMDYWGQGTSVTVSS
VL: DIVLTQSPATLSVTPGDSVSLSCRANQSISNNLHWYQQRSHESPRLLIRFASQSISGIPSRFSGSGSGTDFTLSINSVETEDFGMYFCQQSDNWPLTFGAGTKLEIK

IC50 [1]: 3.68 nM and 4.54 nM
B4: anti-PD-1pem/anti-HER2 heterodimeric bispecific antibody (bispecific antibody)
heavy 1: not shown
light 1: EIVLTQSPATLSLSPGERATLSCRASKGVSTSGYSYLHWYQQKPGQAPRLLIYLASYLESGVPARFSGSGSGTDFTLTISSLEPEDFAVYYCQHSRDLPLTFGGGTKVEIKRTVAAPSVFIFPPSDEQLKSGTASVVCLLNNFYPREAKVQWKVDNALQSGNSQESVTEQDSKDSTYSLSSTLTLSKADYEKHKVYACEVTHQGLSSPVTKSFNRGEC
heavy 2: not shown
light 2: not shown

More lines, now with the values behind:

B1: anti-PD-1BJHM/anti-HER2 heterodimeric bispecific antibody (bispecific antibody)
heavy 1: not shown
light 1: DIVLTQSPATLSVTPGDSVSLSCRANQSISNNLHWYQQRSHESPRLLIRFASQSISGIPSRFSGSGSGTDFTLSINSVETEDFGMYFCQQSDNWPLTFGAGTKLEIKRTVAAPSVFIFPPSDEQLKSGTASVVCLLNNFYPREAKVQWKVDNALQSGNSQESVTEQDSKDSTYSLSSTLTLSKADYEKHKVYACEVTHQGLSSPVTKSFNRGEC
heavy 2: not shown
light 2: not shown
IC50 [1]: 2.06 nM and 1.95 nM

B2: PD-1 MONOCLONAL ANTIBODYpem (antibody, V domains shown)
VH: QVQLVQSGVEVKKPGASVKVSCKASGYTFTNYYMYWVRQAPGQGLEWMGGINPSNGGTNFNEKFKNRVTLTTDSSTTTAYMELKSLQFDDTAVYYCARRDYRFDMGFDYWGQGTTVTVSS
VL: EIVLTQSPATLSLSPGERATLSCRASKGVSTSGYSYLHWYQQKPGQAPRLLIYLASYLESGVPARFSGSGSGTDFTLTISSLEPEDFAVYYCQHSRDLPLTFGGGTKVEIK
EC50 [2]: > 20 nM
